Legend:
[1] = target: recombinant HCIQ2c1 Kunitz-type peptide from Heteractis crispa (Heteractis crispa); experiment: SPR; Biacore 3000; peptides covalently immobilised on a CM4 chip (970 RU rHCIQ2c1, 460 RU rHCIQ4c7); proteinases 1 nM to 5 μM flowed over; 25 °C; HBS: 0.15 M NaCl, 0.01 M HEPES, pH 7.4
[2] = target: recombinant HCIQ2c1 Kunitz-type peptide from Heteractis crispa (Heteractis crispa); experiment: SPR; rHCIQ2c1 immobilised on a CM4 chip; temperature range of 10–40 °С at an interval of 5 °С; enthalpy from the temperature dependence of ΔG (Van't Hoff diagram)

Chain of recombinant HCIQ2c1 Kunitz-type peptide from Heteractis crispa (Heteractis crispa) (A0A6B7FBD3 28-85): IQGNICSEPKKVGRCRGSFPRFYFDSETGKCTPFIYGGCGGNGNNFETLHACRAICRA

Substance	Ka [1] [M⁻¹]	Kd [1] [nM]	koff [1] [s⁻¹]	kon [1] [M⁻¹ s⁻¹]	dH [2] [kcal/mol]
cathepsin G (from UniProt P08311 21-244) (enzyme)	3.58e+09	0.279	0.000359	1.29e+06	–
α-chymotrypsin (enzyme)	1.03e+07	97.4	0.00749	76900	4.68
